Test results reported in FireProtDB (doi:10.1002/pro.3128).

Settings: Homo sapiens, pH 7.3, 25 °C, Sodium citrate 5mM, KF 50mM, transition: 2, reversible: no, whole UniProt chain shown

B1: Pleckstrin homology domain-containing family F member 2 wild type, Q9H8W4 (protein)
chain: MVDRLANSEANTRRISIVENCFGAAGQPLTIPGRVLIGEGVLTKLCRKKPKARQFFLFNDILVYGNIVIQKKKYNKQHIIPLENVTIDSIKDEGDLRNGWLIKTPTKSFAVYAATATEKSEWMNHINKCVTDLLSKSGKTPSNEHAAVWVPDSEATVCMRCQKAKFTPVNRRHHCRKCGFVVCGPCSEKRFLLPSQSSKPVRICDFCYDLLSAGDMATCQPARSDSYSQSLKSPLNDMSDDDDDDDSSD
- denaturant m value (GdnHCl, CD): 2.48 kcal/mol/M
- denaturant midpoint (higher = more stable) (GdnHCl, CD): 1.51 M
- unfolding free energy (GdnHCl, CD): 3.75 kcal/mol
- denaturant m value (GdnHCl, Fluorescence): 2.93 kcal/mol/M
- denaturant midpoint (higher = more stable) (GdnHCl, Fluorescence): 1.3 M
- unfolding free energy (GdnHCl, Fluorescence): 3.8 kcal/mol
- denaturant m value (Urea, CD): 1.16 kcal/mol/M
- denaturant midpoint (higher = more stable) (Urea, CD): 3.45 M
- unfolding free energy (Urea, CD): 4 kcal/mol
- denaturant m value (Urea, Fluorescence): 1.19 kcal/mol/M
- denaturant midpoint (higher = more stable) (Urea, Fluorescence): 3.42 M
- unfolding free energy (Urea, Fluorescence): 4.07 kcal/mol
